Measurements from patent US20230071765A1, “COMPOSITIONS HAVING THIOREDOXIN ACTIVITY AND RELATED METHODS” (ORPRO THERAPEUTICS, INC., priority 2020, published 2023).

Experiments:
[1] = SEC-HPLC percent free monomer in solution; assay type: physicochemical
Experimental: (§1) Functional assays 1. Reduction state of ORP100S was quantified using DTNB which reacts with free SH groups resulting in a yellow color change at 412 nm. Fifty microliters of 2.5 mM rhTrx was added to a 96-well plate, followed by 175 microliters of sample buffer and 25 microliters of 6 mM DTNB. After reactions were initiated by the addition of DTNB, change in kinetic absorbance at 412 nm due to DTNB reduction was monitored spectrophotometrically at 30° C. ORP100S concentration was determined by A280 (Nanodrop) using the extinction coefficient of human Trx-1 (7,000). The actual concentrations of free sulfhydryl groups were calculated based on the absorbance at 412 nm and the extinction coefficient of DTNB (14,150) in order to determine the reduction state as percentage of free sulfhydryl. […] 2. Percent of free monomer ORP100S in solution was determined using SEC. Samples were analyzed on a BioBasic S-300 250×4.6 column (Thermo Scientific) run on an Agilent 1100 HPLC system. The SEC-HPLC mobile phase buffer consisted of 40 mM ammonium acetate (pH 5.5), 2 mM EDTA and 450 mM NaCl. Low pH minimized dimerization while the 450 mM NaCl concentration improved resolution. The flow rate was 0.35 mL/min and absorbance was monitored at 280 nm. The length of each run was 20 minutes. The ORP100S monomer percentage was determined by integration of the area under the peak of the monomeric fraction divided by the total area under the curve of the chromatogram. 3. Disulfide bond reduction activity of ORP100S was quantified by assaying the reduction state of a small protein (human insulin) which in its heterodimeric form contains two intermolecular and one intramolecular disulfide, all three of which are known to be suitable thioredoxin substrates. Insulin reduction has classically been used to quantify thioredoxin activity by absorbance change following addition of NADPH and TrxR (Holmgren A., 1979, Thioredoxin catalyzes the reduction of insulin disulfides by dithiothreitol and dihydrolipoamide, J Biol Chem 254:9627-32). Such an approach is not suitable for monothiol C35S thioredoxins ORP-100 and ORP100S due to 1) the lack of cycling resulting from stoichiometric covalent linkage to the disulfide bond substrate and 2) the inability of NADPH and TrxR to reduce Cys32 of the oxidized monothiol Trx active site. Consequently, a new assay was developed based on the use of reverse-phase (RP) HPLC to monitor the rate of conversion of disulfide-bonded insulin heterodimers to monomeric forms. The two chains of human insulin have a total of six Cys residues which form three disulfide bonds in its mature structure. When ORP100S in the reduced form is incubated with dimeric insulin it reacts with these disulfide bonds to disrupt them, simultaneously forming covalent linkages to the ORP100S Cys32. […] The ORP100S samples were incubated with 10 mg/mL insulin for various time points (0-90 min) and the reactions were stopped by addition of iodacetic acid (IA) and trifluoroacetic acid (TFA). Relative activity at each time point was determined from changes in the area under the insulin heterodimer peak following separation over RP-HPLC (Agilent 1100) using an Intrada WP-RP 50×3 (Imtakt) column. Buffer A was 0.1% TFA and Buffer B was 0.1% TFA in acetonitrile. The gradient was […] in 5 min followed by 30 to 60% B in 45 min, then 60 to 80% B for an additional 5 min. The flow rate was 0.2 mL/min and absorbance was measured at 280 nm. In order to evaluate the change in the intact insulin molecule a time 0 baseline was first established using 1 M IA and 0.1% TFA without the addition of ORP100S. The area under the intact insulin heterodimer peak was then determined and set as equivalent to 100%. After the reaction with ORP100S the area of the intact insulin peak (corresponding to retention time) was measured. The percent reduction in intact insulin was then calculated from the decrease in the area following reduction divided by the area at time 0 multiplied by 100.

[2] = target: T1, human insulin (Homo sapiens, UniProt P01308); experiment: RP-HPLC insulin reduction assay (conversion of insulin heterodimer); assay type: biochemical; conditions: for Relative % insulin reduction: relative to maximum
T1 construct: The two chains of human insulin have a total of six Cys residues which form three disulfide bonds in its mature structure
Experimental: as §1

[3] = thiol pKa (acid-dissociation constant); assay type: physicochemical; conditions: verified experimentally, data not shown
Text: The human CF airway surface liquid is approximately 0.8 pH units more acidic than that of unaffected individuals due to the loss of bicarbonate-mediated buffering of proton secretion (Garland A L, Walton W G, Coakley R D, et al., 2013, Molecular basis for pH-dependent mucosal dehydration in cystic fibrosis airways. PNAS 110:15973-8; Shah V S, Meyerholz D K, Tang X X, et al., 2016, Airway acidification initiates host defense abnormalities in cystic fibrosis mice, Science 351:503-7). This has consequences for the clinical use of reducing agents to treat condensed, abnormal mucus. […] Cys thiol pKa values range from pH 8.5 (cysteamine) to pH 9.5 (NAC). In marked contrast to these classical thiols, the structurally-stabilized pKa of the Trx active site Cys32 is two to three logs lower (pH 6.1-6.3), allowing high activity even at acidic CF airway pH (FIG. 2).

[4] = 70 mg/mL in PBS, 25° C., red fraction removed
[5] = 80 mg/mL in PBS, 25° C., red fraction removed
[6] = 90 mg/mL in PBS, 25° C., red fraction removed
[7] = 100 mg/mL in PBS, 25° C., red fraction removed
[8] = 110 mg/mL in PBS, 25° C., red fraction removed

T1 sequence (P01308 25-54 limits assumed): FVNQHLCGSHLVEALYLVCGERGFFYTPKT
T1 sequence (P01308 90-110 limits assumed): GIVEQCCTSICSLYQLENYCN

B1: ORP100S: thioredoxin with monothiol active site, Cys35 and non-active Cys 62, 69 and 73 substituted with serine (SEQ ID NO:29) (protein)
chain: MVKQIESKTAFQEALDAAGDKLVVVDFSATWCGPSKMIKPFFHSLSEKYSNVIFLEVDVDDSQDVASESEVKSMPTFQFFKKGQKVGEFSGANKEKLEATINELV
modifications: synthetic peptide motif
% monomer (232 hrs) [1, 4]: 93%
% monomer (Time 0) [1, 4]: 93%
% monomer (232 hrs) [1, 5]: 93%
% monomer (Time 0) [1, 5]: 94%
% monomer (232 hrs) [1, 6]: 92%
% monomer (Time 0) [1, 6]: 94%
% monomer (232 hrs) [1, 7]: 93%
% monomer (Time 0) [1, 7]: 95%
% monomer (232 hrs) [1, 8]: 92%
% monomer (Time 0) [1, 8]: 95%
SEC % monomer ([1]; Ox:Red 0:100 mixture): 89%
SEC % monomer ([1]; Ox:Red 25:75 mixture): 70%
SEC % monomer ([1]; Ox:Red 50:50 mixture): 52%
SEC % monomer ([1]; Ox:Red 75:25 mixture): 36%
SEC % monomer ([1]; Ox:Red 100:0 mixture): 22%
decrease in percent monomer ([1]; time 0 to 232 hours, 25° C., PBS, 70-110 mg/ml, red fraction removed): 2%
Relative % insulin reduction ([2]; Ox:Red 0:100 mixture): 100%
Relative % insulin reduction ([2]; Ox:Red 25:75 mixture): 72%
Relative % insulin reduction ([2]; Ox:Red 50:50 mixture): 51%
Relative % insulin reduction ([2]; Ox:Red 75:25 mixture): 36%
Relative % insulin reduction ([2]; Ox:Red 100:0 mixture): 8%
maximum insulin heterodimer reaction ([2]; fully reduced material, time and conditions used): 45%
pKa compared to native Trx [3]: same pKa as native Trx
